According to the supplement of paper PMC5998384:

Columns and labels:
HeLa Kyoto [1] = assay: solubility in G1/S (NP-40 vs SDS abundance) (log2 ratio); higher = more soluble; details: cell cycle stage: G1/S
HeLa Kyoto [2] = assay: solubility change mitosis vs G1/S (difference of NP-40 vs SDS log2 ratios) (log2 ratio difference); higher = more soluble in mitosis
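Wherever solubility change mitosis vs G1/S (difference of NP-40 vs SDS log2 ratios) is given: synchronized HeLa Kyoto cells (double thymidine block for G1/S, nocodazole release for mitosis), protein amounts in NP-40 versus SDS lysates quantified by mass spectrometry, three biological replicates.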
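Wherever solubility in G1/S (NP-40 vs SDS abundance) is given: HeLa Kyoto cells arrested at G1/S by double thymidine block, proteins quantified by TMT10plex mass spectrometry in mild NP-40 versus SDS extracts, three biological replicates.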

Question: Which “solubility in G1/S (log2)” value (HeLa Kyoto [1]) does the source give for “MGPLRESKKEHRVQHHDKEISRSRIPRLILRPHMPQQQHKVSPASESPFSEEESREFNPSSSGRSARTVSSNSFCSDDTGCPSSQSVSPVKTPSDAGNSPIGFCPGSDEGFTRKKCTIGMVGEGSIQSSRYKKESKSGLVKPGSEADFSSSSSTGSISAPEVHMSTAGSKRSSSSRNRGPHGRSNGASSHKPGSSPSSPREKDLLSMLCRNQLSPVNIHPSYAPSSPSSSNSGSYKGSDCSPIMRRSGRYMSCGENHGVRPPNPEQYLTPLQQKEVTVRHLKTKLKESERRLHERESEIVELKSQLARMREDWIEEECHRVEAQLALKEARKEIKQLKQVIETMRSSLADKDKGIQKYFVDINIQNKKLESLLQSMEMAHSGSLRDELCLDFPCDSPEKSLTLNPPLDTMADGLSLEEQVTGEGADRELLVGDSIANSTDLFDEIVTATTTESGDLELVHSTPGANVLELLPIVMGQEEGSVVVERAVQTDVVPYSPAISELIQSVLQKLQDPCPSSLASPDESEPDSMESFPESLSALVVDLTPRNPNSAILLSPVETPYANVDAEVHANRLMRELDFAACVEERLDGVIPLARGGVVRQYWSSSFLVDLLAVAAPVVPTVLWAFSTQRGGTDPVYNIGALLRGCCVVALHSLRRTAFRIKT [SYBU]” here?
Answer: The value was -0.253.

Question: And the “solubility change mitosis (log2)” value (HeLa Kyoto [2])?
Answer: The value was 0.0944.

Question: How did the “solubility in G1/S (log2)” value (HeLa Kyoto [1]) turn out when “MGSELIGRLAPRLGLAEPDMLRKAEEYLRLSRVKCVGLSARTTETSSAVMCLDLAASWMKCPLDRAYLIKLSGLNKETYQSCLKSFECLLGLNSNIGIRDLAVQFSCIEAVNMASKILKSYESSLPQTQQVDLDLSRPLFTSAALLSACKILKLKVDKNKMVATSGVKKAIFDRLCKQLEKIGQQVDREPGDVATPPRKRKKIVVEAPAKEMEKVEEMPHKPQKDEDLTQDYEEWKRKILENAASAQKATAE [ORC6]” was run?
Answer: Its value is 0.47.

Question: And the “solubility change mitosis (log2)” value (HeLa Kyoto [2])?
Answer: Its value is -0.389.

Question: Which results are given for “MGSKERFHWQSHNVKQSGVDDMVLLPQITEDAIAANLRKRFMDDYIFTYIGSVLISVNPFKQMPYFTDREIDLYQGAAQYENPPHIYALTDNMYRNMLIDCENQCVIISGESGAGKTVAAKYIMGYISKVSGGGEKVQHVKDIILQSNPLLEAFGNAKTVRNNNSSRFGKYFEIQFSRGGEPDGGKISNFLLEKSRVVMQNENERNFHIYYQLLEGASQEQRQNLGLMTPDYYYYLNQSDTYQVDGTDDRSDFGETLSAMQVIGIPPSIQQLVLQLVAGILHLGNISFCEDGNYARVESVDLLAFPAYLLGIDSGRLQEKLTSRKMDSRWGGRSESINVTLNVEQAAYTRDALAKGLYARLFDFLVEAINRAMQKPQEEYSIGVLDIYGFEIFQKNGFEQFCINFVNEKLQQIFIELTLKAEQEEYVQEGIRWTPIQYFNNKVVCDLIENKLSPPGIMSVLDDVCATMHATGGGADQTLLQKLQAAVGTHEHFNSWSAGFVIHHYAGKVSYDVSGFCERNRDVLFSDLIELMQTSEQAFLRMLFPEKLDGDKKGRPSTAGSKIKKQANDLVATLMRCTPHYIRCIKPNETKRPRDWEENRVKHQVEYLGLKENIRVRRAGFAYRRQFAKFLQRYAILTPETWPRWRGDERQGVQHLLRAVNMEPDQYQMGSTKVFVKNPESLFLLEEVRERKFDGFARTIQKAWRRHVAVRKYEEMREEASNILLNKKERRRNSINRNFVGDYLGLEERPELRQFLGKRERVDFADSVTKYDRRFKPIKRDLILTPKCVYVIGREKVKKGPEKGQVCEVLKKKVDIQALRGVSLSTRQDDFFILQEDAADSFLESVFKTEFVSLLCKRFEEATRRPLPLTFSDTLQFRVKKEGWGGGGTRSVTFSRGFGDLAVLKVGGRTLTVSVGDGLPKSSKPTRKGMAKGKPRRSSQAPTRAAPAPPRGMDRNGVPPSARGGPLPLEIMSGGGTHRPPRGPPSTSLGASRRPRARPPSEHNTEFLNVPDQGMAGMQRKRSVGQRPVPGVGRPKPQPRTHGPRCRALYQYVGQDVDELSFNVNEVIEILMEDPSGWWKGRLHGQEGLFPGNYVEKI [MYO1F]”?
Answer: solubility in G1/S (log2) (HeLa Kyoto [1]): -0.1; solubility change mitosis (log2) (HeLa Kyoto [2]): -0.173

Question: For “MGSQHSAAARPSSCRRKQEDDRDGLLAEREQEEAIAQFPYVEFTGRDSITCLTCQGTGYIPTEQVNELVALIPHSDQRLRPQRTKQYVLLSILLCLLASGLVVFFLFPHSVLVDDDGIKVVKVTFNKQDSLVILTIMATLKIRNSNFYTVAVTSLSSQIQYMNTVVSTYVTTNVSLIPPRSEQLVNFTGKAEMGGPFSYVYFFCTVPEILVHNIVIFMRTSVKISYIGLMTQSSLETHHYVDCGGNSTAI [TMEM106C]”, which “solubility in G1/S (log2)” value (HeLa Kyoto [1]) is on record?
Answer: The value was 0.121.

Question: And the “solubility change mitosis (log2)” value (HeLa Kyoto [2])?
Answer: Its value is -0.29.

Question: Which results are given for “MGTFCSVIKFENLQELKRLCHWGPIIALGVIAICSTMAMIDSVLWYWPLHTTGGSVNFIMLINWTVMILYNYFNAMFVGPGFVPLGWKPEISQDTMYLQYCKVCQAYKAPRSHHCRKCNRCVMKMDHHCPWINNCCGYQNHASFTLFLLLAPLGCIHAAFIFVMTMYTQLYHRLSFGWNTVKIDMSAARRDPLPIVPFGLAAFATTLFALGLALGTTIAVGMLFFIQMKIILRNKTSIESWIEEKAKDRIQYYQLDEVFVFPYDMGSRWRNFKQVFTWSGVPEGDGLEWPVREGCHQYSLTIEQLKQKADKRVRSVRYKVIEDYSGACCPLNKGIKTFFTSPCTEEPRIQLQKGEFILATRGLRYWLYGDKILDDSFIEGVSRIRGWFPRKCVEKCPCDAETDQAPEGEKKNR [ZDHHC6]”?
Answer: solubility in G1/S (log2) (HeLa Kyoto [1]): -0.0586; solubility change mitosis (log2) (HeLa Kyoto [2]): -0.272

Question: How did the “solubility in G1/S (log2)” value (HeLa Kyoto [1]) turn out when “MGTSLSPNDPWPLNPLSIQQTTLLLLLSVLATVHVGQRLLRQRRRQLRSAPPGPFAWPLIGNAAAVGQAAHLSFARLARRYGDVFQIRLGSCPIVVLNGERAIHQALVQQGSAFADRPAFASFRVVSGGRSMAFGHYSEHWKVQRRAAHSMMRNFFTRQPRSRQVLEGHVLSEARELVALLVRGSADGAFLDPRPLTVVAVANVMSAVCFGCRYSHDDPEFRELLSHNEEFGRTVGAGSLVDVMPWLQYFPNPVRTVFREFEQLNRNFSNFILDKFLRHCESLRPGAAPRDMMDAFILSAEKKAAGDSHGGGARLDLENVPATITDIFGASQDTLSTALQWLLLLFTRYPDVQTRVQAELDQVVGRDRLPCMGDQPNLPYVLAFLYEAMRFSSFVPVTIPHATTANTSVLGYHIPKDTVVFVNQWSVNHDPLKWPNPENFDPARFLDKDGLINKDLTSRVMIFSVGKRRCIGEELSKMQLFLFISILAHQCDFRANPNEPAKMNFSYGLTIKPKSFKVNVTLRESMELLDSAVQNLQAKETCQ [CYP1B1]” was run?
Answer: Its value is -0.0639.

Question: And the “solubility change mitosis (log2)” value (HeLa Kyoto [2])?
Answer: Its value is -0.171.

Question: Which “solubility in G1/S (log2)” value (HeLa Kyoto [1]) does the source give for “MGVQGFQEFLEKRCPGAVVPVDLLKLARTVSRQQQQQHLHRQLPPTAALAPGAPRAARGSVPLQPPLPPAALGAYSGGAGPTRHHHPAHHFHHHGQAQPGLHPPLPPPPPPQLPGARVLVDAGSALPRLYGGYQTDWVCGGQWNAMLGYLSALCQACAYPGGDGLELVVMFPGGLGKDRLAEWGRRCQAERQTAQLIVGHVGNKGTPPPRAWFLPPACLSHCVRLALIRFRVKVFQSLEDHHLEVVAFFRENGFHGLLAHDSEYALYNIPSYYSSHALKLSWNGKNLTTNQFLMQEVAKQLGLKRMNFPIFAALLGNHILPDEDLAAFHWSLLGPEHPLASLKVRAHQLVLPPCDVVIKAVSEYVSSIKDPSNLDVVGKDVFKQSQSRTEDKIERFKKAVEYYSVTTKLSSLPVGPSFLGFRNNRLGNPPLPRNQVGTISAGKPMFSHQVPQKVKYPPPFPVGPNSSLLFSSHALGESHAFSEDPMLQNSPFANWAVSYDSSASQFPNYLPSKASPPLGPDSSHSSSSDGDEPNGASSDHITEAFHHQPEWGNPNRDRGSWAQPVDTGVSEASLGDGEPHIPSLLSMSTRNHMDITIPPLPPVAPEVLRVAEHRHRRGLMYPYIYHVLTKGEIKIPVCIEDECNMELPPAALLFRSARQYVYGVLFSLAETQRKMERLAMRRRLPVEVPSVILKEWSAYKGKSPQTPELVSALTFREWTCPNLKKLWLGKAVEDKNRRMRAFLACMKSDTPSMLNPANVPTHLLLMCCVLRYMVQWPGGRILHRHELDTFLAQAVSTQLYEPDRLQELKIEKLDARGIQLAALFMSGVDTALFANDACGQPVPWEHCCPWIYFDGKLFQSKLIKAGRERVSLVELCDGQADLATKVEKMRQSILEGVNMNHPPPSALLPSPTFVPPMVPSLYPVSLYSRAMGSMPLPPQGRSRGFAGLHPIPPQGGKLEIAGMVVGQWAGSRSSRGRGSFGMQVVSVGGPGKGHGKEQTGRGSKGHKKGNKQGSSDGVSKSLELHQGRSRSQVNGNSGALIKEEKSDHRLPAPSQCALSRDSNECNNGNRYLPMNNREKNHLQEQKLETVAQRKED [FAM120C]” here?
Answer: The value was 0.0177.

Question: And the “solubility change mitosis (log2)” value (HeLa Kyoto [2])?
Answer: The value was -0.0292.

Question: What does the source list for “MGVSKLDILYRRLLLTKLFIRGWGRPEDLKRLFEFRKMIGNRERCQNLVSSDYPVHIDKIEEQSDCKILDGHFVSPMAHYVPDIMPIESVIARFQFIVPKEWNSKYRPVCIHLAGTGDHHYWRRRTLMARPMIKEARMASLLLENPYYGCRKPKDQVRSSLKNVSDLFVMGGALVLESAALLHWLEREGYGPLGMTGISMGGHMASLAVSNWPKPMPLIPCLSWSTASGVFTTTDSFKMGQEFVKHFTSSADKLTNLNLVSRTLNLDISNQVVSQKPADCHNSSKTSVSATSEGLLLQDTSKMKRFNQTLSTNKSGYTSRNPQSYHLLSKEQSRNSLRKESLIFMKGVMDECTHVANFSVPVDPSLIIVVQAKEDAYIPRTGVRSLQEIWPGCEIRYLEGGHISAYLFKQGLFR [ABHD18]”?
Answer: solubility in G1/S (log2) (HeLa Kyoto [1]): -0.33; solubility change mitosis (log2) (HeLa Kyoto [2]): -0.181

Question: Which results are given for “MHARGPHGQLSPALPLASSVLMLLMSTLWLVGAGPGLVLAPELLLDPWQVHRLLTHALGHTALPGLLLSLLLLPTVGWQQECHLGTLRFLHASALLALASGLLAVLLAGLGLSSAAGSCGYMPVHLAMLAGEGHRPRRPRGALPPWLSPWLLLALTPLLSSEPPFLQLLCGLLAGLAYAAGAFRWLEPSERRLQVLQEGVLCRTLAGCWPLRLLATPGSLAELPVTHPAGVRPPIPGPPYVASPDLWSHWEDSALPPPSLRPVQPTWEGSSEAGLDWAGASFSPGTPMWAALDEQMLQEGIQASLLDGPAQEPQSAPWLSKSSVSSLRLQQLERMGFPTEQAVVALAATGRVEGAVSLLVGGQVGTETLVTHGKGGPAHSEGPGPP [RHBDD3]”?
Answer: solubility in G1/S (log2) (HeLa Kyoto [1]): -0.0767; solubility change mitosis (log2) (HeLa Kyoto [2]): 0.0168
